# Data taken from patent US20230257447A1 (published 2023).
# T1: CMV phosphoprotein pp65 (SEQ 34) peptide on HLA-A*11:01 (human)
# T1 peptide: ATVQGQNLK
# B1: C44 (TCR, V domains shown)
# Valpha: AQTVTQSQPEMSVQEAETVTLSCTYDTSESDYYLFWYKQPPSRQMILVIRQEAYKQQNATENRFSVNFQKAAKSFSLKISDSQLGDAAMYFCAYRAFYTGANSKLTFGKGITLSVRP
# Vbeta: DAGVTQSPTHLIKTRGQQVTLRCSPKSGHDTVSWYQQALGQGPQFIFQYYEEEERQRGNFPDRFSGHQFPNYSSELNVNALLLGDSALYLCASSFFRGEGNQPQHFGDGTRLSIL
# B2: C45 (TCR, V domains shown)
# Valpha: DQQVKQNSPSLSVQEGRISILNCDYTNSMFDYFLWYKKYPAEGPTFLISISSIKDKNEDGRFTVFLNKSAKHLSLHIVPSQPGDSAVYFCAASAWNTGNQFYFGTGTSLTVIP
# Vbeta: KAGVTQTPRYLIKTRGQQVTLSCSPISGHRSVSWYQQTPGQGLQFLFEYFSETQRNKGNFPGRFSGRQFSNSRSEMNVSTLELGDSALYLCASSLAGYKQETQYFGPGTRLLVL
# Target: T1, CMV phosphoprotein pp65 (SEQ 34) …
# Assay: multimer staining
row,Binder,binding result
1,B1,recognises
2,B2,recognises
